Here are results for one substance from patent publication US20240417485A1.

Assay [1] concerns the target human uPAR expressed on the cell surface (human) (UniProt Q03405). The assay is described as follows: flow cytometry on 293T cells, isotype control (background).
For assay [2] the target is unchanged. The assay is described as follows: flow cytometry on A375 cells, isotype control (background).
Assay [3] shares this target. The assay is described as follows: flow cytometry on 293T-uPAR cells, isotype control (background).

Chain of human uPAR expressed on the cell surface (human) (Q03405 23-305): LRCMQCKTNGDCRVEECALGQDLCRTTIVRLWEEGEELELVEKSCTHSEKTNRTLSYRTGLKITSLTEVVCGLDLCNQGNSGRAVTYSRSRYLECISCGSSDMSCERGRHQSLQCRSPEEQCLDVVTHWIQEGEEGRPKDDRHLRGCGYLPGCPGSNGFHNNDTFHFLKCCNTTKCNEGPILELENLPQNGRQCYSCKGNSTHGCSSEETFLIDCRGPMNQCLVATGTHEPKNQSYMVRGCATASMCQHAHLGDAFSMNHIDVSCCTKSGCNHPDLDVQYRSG

In the case of isotype antibody, the MFI was 62 in assay [1], 71.3 in assay [2] and 46.4 in assay [3].
